Each block holds one binder with its values, some of them ahead of it.
Key:
[1] = biological target: T1, human CD16A-158F expressed on CHO-K1 cells (human, UniProt P08637 17-254); test: flow cytometry on antigen-expressing CHO-K1 cells
T1 construct: whole, on cells
Description: (§1) In order to evaluate the binding activity of the chimeric mAbs to human CD16A expressed on cells, cell-based binding assay was employed as followed. […] The antibody dilutions were incubated with 1×10⁵ indicated cells in the 96-well microplate for one hour at 4° C. The antibodies binding to the antigen on the cell surface were detected with PE fluorophore-conjugated anti-human IgG Fc secondary antibodies (ThermoFisher scientific, Cat. No. 12-4998-82) at a dilution rate of 1:1000. Cells were analyzed by flow cytometer LSRFortessa Cell Analyzer (BD Biosciences). Data were analyzed with Flowjo 10.0 software. The graph and statistics analysis were generated with four-parameter nonlinear regression curve fit in Graphpad Prism 9 software.
(§2) CHO-K1 cells stably expressing cynomolgus CD16 were used in the following test.

[2] = biological target: T2, human CD16A-158V expressed on CHO-K1 cells (human, UniProt P08637 17-254); test: flow cytometry on antigen-expressing CHO-K1 cells
T2 construct: whole, on cells; also called hCD16A-158V; CHO-K1-hCD16A-158V
T2 sequence (P08637 17-254 F176V): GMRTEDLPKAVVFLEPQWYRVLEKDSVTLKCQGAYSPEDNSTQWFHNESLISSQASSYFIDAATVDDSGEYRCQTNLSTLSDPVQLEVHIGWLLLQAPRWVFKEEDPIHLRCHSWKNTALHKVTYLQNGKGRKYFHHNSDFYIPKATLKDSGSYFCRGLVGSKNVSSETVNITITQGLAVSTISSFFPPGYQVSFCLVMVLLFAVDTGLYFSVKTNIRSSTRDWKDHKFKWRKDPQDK
Description: as §1, §2

[3] = biological target: T3, cynomolgus CD16 expressed on CHO-K1 cells (cynomolgus, UniProt Q8SPW2 17-254); test: flow cytometry on antigen-expressing CHO-K1 cells
T3 construct: whole, on cells; also called cyno CD16; CHO-K1-cynoCD16
T3 sequence (Q8SPW2 17-254): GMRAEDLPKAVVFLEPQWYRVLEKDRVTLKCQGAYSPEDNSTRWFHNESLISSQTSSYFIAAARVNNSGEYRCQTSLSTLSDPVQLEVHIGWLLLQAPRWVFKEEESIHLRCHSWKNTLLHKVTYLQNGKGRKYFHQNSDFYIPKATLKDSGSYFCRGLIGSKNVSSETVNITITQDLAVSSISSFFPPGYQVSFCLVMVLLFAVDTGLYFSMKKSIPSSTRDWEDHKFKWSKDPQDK
Description: as §1, §2

[4] = biological target: T2, human CD16A-158V expressed on CHO-K1 …; test: flow cytometry, CHO-K1-hCD16A-158V cells, geometric mean
Description: as §1
The assay was performed following the protocol described above.

[5] = biological target: T4, human GPC3 on HepG2 cells (human, UniProt P51654 25-554); test: flow cytometry, HepG2 cells (GPC3 positive), geometric mean
T4 construct: whole, on cells; also called GPC3-positive HepG2 cells
T4 sequence (P51654 25-554 limits assumed): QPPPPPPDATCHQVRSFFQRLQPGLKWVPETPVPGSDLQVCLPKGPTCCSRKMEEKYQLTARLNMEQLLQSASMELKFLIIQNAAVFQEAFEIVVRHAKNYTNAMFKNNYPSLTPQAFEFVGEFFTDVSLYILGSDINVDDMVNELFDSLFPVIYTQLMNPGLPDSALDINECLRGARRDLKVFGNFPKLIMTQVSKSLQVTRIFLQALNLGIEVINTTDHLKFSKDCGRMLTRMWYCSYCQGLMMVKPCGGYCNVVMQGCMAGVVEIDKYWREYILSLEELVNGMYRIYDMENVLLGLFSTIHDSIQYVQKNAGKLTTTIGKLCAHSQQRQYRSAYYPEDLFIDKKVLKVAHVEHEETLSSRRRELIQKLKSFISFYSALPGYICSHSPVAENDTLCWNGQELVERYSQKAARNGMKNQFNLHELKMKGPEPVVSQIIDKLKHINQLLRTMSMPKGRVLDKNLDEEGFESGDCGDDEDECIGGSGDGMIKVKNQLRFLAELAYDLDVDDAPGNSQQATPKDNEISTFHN

[6] = biological target: T5, human CD16B-NA1 ECD his tag protein (human, UniProt O75015 17-200); test: ELISA, hCD16B-NA1-his coated at 2 ug/mL, OD450
T5 construct: extracellular domain; Bought protein; also called hCD16B-NA1-his; hCD16B-NA1 protein
T5 sequence (O75015 other isoform, or with tags, fused parts or gaps limits assumed): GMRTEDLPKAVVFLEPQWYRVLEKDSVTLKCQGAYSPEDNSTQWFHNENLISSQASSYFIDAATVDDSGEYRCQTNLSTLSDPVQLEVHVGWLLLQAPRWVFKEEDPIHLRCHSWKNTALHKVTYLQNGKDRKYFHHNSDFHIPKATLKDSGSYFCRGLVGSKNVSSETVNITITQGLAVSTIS
Description: (§3) In order to determine the binding ability of the chimeric Abs to human CD16A protein, ELISA-based binding assay was performed as followed. […] The mixture was incubated for 1 hour at room temperature (RT). The primary antibody was recognized by a detective antibody against human IgG Fc which was conjugated with horseradish peroxidase (HRP) (Jackson Immuno, Cat. No. 109-035-008). Tetramethylbenzidine (TMB), a substrate of HRP, was added to the wells to visualize the binding signal. After sufficient color development, stop solution was added to the wells. The absorbance of the signal was detected at 450 nm with Envision multilabel plate readers (PerkinElemer). The graph and statistics analysis were generated with four-parameter nonlinear regression curve fit in Graphpad Prism 9 software.
(§4) In order to determine the binding ability of the chimeric Abs to human CD16B protein, ELISA binding assay was performed as previously described. Three spliced isoforms of CD16B including human CD16B-NA1 ECD his tag protein (hCD16B-NA1-his, Acro Bio, Cat: No. CDB-H5227), human CD16B-NA2 ECD his tag protein (hCD16B-NA2-his, Acro Bio, Cat: No. CDB-H82Ea) and human CD16B-SH-his protein, were used as the coating antigens at 2 μg/mL.

[7] = biological target: T2, human CD16A-158V expressed on CHO-K1 …; test: flow cytometry, CHO-K1-hCD16A-158V cells, Alexa Fluor 647 anti-human IgG Fc, geometric mean
Description: as §1
The assay was performed following the protocol described above. The antibodies binding to the antigen on the cell surface were detected with Alexa Fluor® 647 AffiniPure™ F(ab′)₂ fragment goat anti-human IgG Fcγ fragment specific secondary antibody (Jackson Immuno Research, Cat. No. 109-606-098) at a dilution rate of 1:2000.

[8] = biological target: T6, human CD16B-NA2 ECD his tag protein (human, UniProt O75015 17-200); test: ELISA, hCD16B-NA2-his coated at 2 ug/mL, OD450
T6 construct: extracellular domain; Bought protein; also called hCD16B-NA2-his; hCD16B-NA2 protein
T6 sequence (O75015 17-200 N65S limits assumed): as the sequence (O75015 other isoform, or with tags, fused parts or gaps limits assumed) above, with R20S, N49S, D66N, V90I counted along it
Description: as §3, §4

T1 sequence (P08637 17-254): as the sequence (P08637 17-254 F176V) above, with V160F counted along it

EC50 [1]: 0.57 nM
EC50 [2]: 0.61 nM
EC50 [3]: 1.74 nM
EC50 (read off the curve) [4]: ~0.4 nM
binding result [5]: no binding (tested: 100 nM)
binding result [6]: no binding (tested: 20 nM)
EC50 (read off the curve) [7]: ~0.4 nM
binding result [8]: no binding (tested: 20 nM)
B1: P2C47-hIgG1 LALAPG (antibody)
heavy: QVQLVQSGAEVKKPGESLKVSCKASGYTFTSYYMHWVRQAPGQGLEWMGAIEPMYGSTSYAQKFQGRVTMTRDTSTSTVYMELSSLRSEDTAVYYCARGSAYYYDFADYWGQGTLVTVSSASTKGPSVFPLAPSSKSTSGGTAALGCLVKDYFPEPVTVSWNSGALTSGVHTFPAVLQSSGLYSLSSVVTVPSSSLGTQTYICNVNHKPSNTKVDKKVEPKSCDKTHTCPPCPAPEAAGGPSVFLFPPKPKDTLMISRTPEVTCVVVDVSHEDPEVKFNWYVDGVEVHNAKTKPREEQYNSTYRVVSVLTVLHQDWLNGKEYKCKVSNKALGAPIEKTISKAKGQPREPQVYTLPPSREEMTKNQVSLTCLVKGFYPSDIAVEWESNGQPENNYKTTPPVLDSDGSFFLYSKLTVDKSRWQQGNVFSCSVMHEALHNHYTQKSLSLSPGK
light: SYVLTQPSSVSVAPGQTATISCGGHNIGSKNVHWYQQRPGQSPVLVIYQDNKRPSGIPERFSGSNSGNTATLTISGTQAMDEADYYCQVWDNYSVLFGGGTKLTVLGQPKANPTVTLFPPSSEELQANKATLVCLISDFYPGAVTVAWKADGSPVKAGVETTKPSKQSNNKYAASSYLSLTPEQWKSHRSYSCQVTHEGSTVEKTVAPTECS
notes: also called benchmark antibody P2C47

EC50 [1]: 0.4 nM
EC50 [2]: 0.36 nM
EC50 [3]: 1.74 nM
EC50 (read off the curve) [4]: ~0.4 nM
binding result [5]: no binding (tested: 100 nM)
binding result [6]: no binding (tested: 20 nM)
EC50 (read off the curve) [7]: ~0.4 nM
binding result [8]: no binding (tested: 20 nM)
B2: 45H6E8-hIgG1 LALAPG (antibody)
heavy: EVQLQQSGAELVRSGASVKLSCTASGFNIKDYYMQWVKQRPEQGLEWIGWIDPENGDTEYAPKFQGKATMTADTSSNTAYLQLSSLTSEDTAVYYCTTGGNYVDWGQGTTLTVSSASTKGPSVFPLAPSSKSTSGGTAALGCLVKDYFPEPVTVSWNSGALTSGVHTFPAVLQSSGLYSLSSVVTVPSSSLGTQTYICNVNHKPSNTKVDKKVEPKSCDKTHTCPPCPAPEAAGGPSVFLFPPKPKDTLMISRTPEVTCVVVDVSHEDPEVKFNWYVDGVEVHNAKTKPREEQYNSTYRVVSVLTVLHQDWLNGKEYKCKVSNKALGAPIEKTISKAKGQPREPQVYTLPPSREEMTKNQVSLTCLVKGFYPSDIAVEWESNGQPENNYKTTPPVLDSDGSFFLYSKLTVDKSRWQQGNVFSCSVMHEALHNHYTQKSLSLSPGK
light: DIVMTQSQKFMSTSVGDRVSITCKASQNVGTAVAWYQQKPGQSPKLLIYSASNRYTGVPDRFTGSGSGTDFTLTISNMQSEDLADYFCQQYSSYPLLTFGAGTNLELKRTVAAPSVFIFPPSDEQLKSGTASVVCLLNNFYPREAKVQWKVDNALQSGNSQESVTEQDSKDSTYSLSSTLTLSKADYEKHKVYACEVTHQGLSSPVTKSFNRGEC
notes: also called 45H6E8 chimeric antibody

Source: patent US20260242485A1 (LEPU BIOPHARMA, published 2026)
